Test results taken from the RNAGym collection of RNA variant scans (doi:10.1021/acssynbio.7b00057).

B1: Pistol ribozyme (parent)
chain: GGGUCGUUGUUCCAUAAUCGCGUGGAUAUGGCACGCAAGUUUCUACCGGGCACCGUAAAUGUCCGACUGGAGCCGUUCGGGCGGCUAUAAACAGACCUCAGGCCCGAAGCGUGGCGGCACCUGCCGCCGGUGGUAAAAAAGAUCGGAAGAGCACACGUCU

Variants of: B1
Experiment: aptazyme ON/OFF ratio, guanine; higher = stronger switching; co-transcriptional cleavage with and without guanine

Variant	aptazyme ON/OFF ratio
U7C U11A C12U C13U	1.16
U7A U8A G9A U10A U11G C12U C13G	1.24
U7A G9C C12U C13A	1.05
U7A U8G G9A U10A U11C C12G C13A	1.21
U7G U8G G9U U10A C12A C13U	1.15
U7A U8A G9U U10C U11G C12G C13A	1.15
U7A U8A U10C U11G C12A C13A	1.12
U7G U8A U10G U11C C12U C13A	1.46
U8A G9C U11A C12G C13U	1.14
G9U U10C C12A	1.77
U7G U8C G9U U10C U11G C12U	2.47
U7C U10A C12A C13U	1.25
U7C U8A U10C U11C C12U	1.09
U7G G9C U10C U11A C12G C13G	1.2
U7G U8G G9U U10C U11G C12U C13G	1.24
U8G G9U U10C U11A C12A C13U	1.09
U7G U8G G9C U11A	4.32
U7C U8G G9U U10G U11G C12A C13A	1.1
U7A G9U U10C C13U	1.18
U7A U8A G9A U10A U11G C13A	1.17
U7A U8A G9C U10G C12G C13G	1.11

Variant	aptazyme ON/OFF ratio
U7G U8A G9A U10G C12G C13A	1.1
U8C G9U U10C U11G C12G C13U	1.07
U7G G9U U10C C13U	1.66
U7C U8C G9C U10C C12G	1.14
U7A U8G G9A U10A U11C C13G	1.04
U7A U8A G9A U10A U11A C13G	1.17
U7G G9U U10C U11A C12G C13U	1.26
G9C U10A U11A C12U C13U	1.42
U10G U11G C12A C13U	1.22
U7A U8G G9A U10C U11A C12A C13U	1.19
U7A U8G G9U U10A U11G C12G C13G	1.14
U7G U8G G9U U10G U11G C12A C13U	1.06
U7C G9C U11G C13U	1.06
U7C G9C U11A C12G	1
U7G U8C G9A U10A U11G C12G	1.19
U7C U8G G9C C12A	1.58
U8G U11G C12U C13U	1.21
U8G U11A C12U	1.46
U7A U8C G9A U10G C12G	1.15
U7A U8C G9A U10C U11G C12A	1.09
U8C G9A U10G C12A C13U	1.28

Variant	aptazyme ON/OFF ratio
U8C G9A U10C C12A C13A	1.27
U7G U8A G9C U10G C12G C13G	1.08
U7A U8C G9C U11C C13G	1.04
U7A U8A G9U U10C U11A C12U C13U	1.22
U7C G9C C12G C13G	1.05
U8A U10G	1.62
U7A G9U U10A	1.4
U7A U8A G9C U10C U11A C13G	1.19
U7C U8G G9C U10C U11G C12A	1.03
U7A U8C G9A U10C C12U C13A	1.17
U7C G9A U11C C12G C13G	1.17
U7G U8C G9A U10A C12U C13G	1.13
U8C G9C U10A U11C	1.05
U7G U10A U11A C12U C13G	1.13
U7C U8G U11C C13A	1.3
U7C U8C U10G C13U	1.12
U8A G9C U10A C12G C13G	1.11
U7G U8G G9C U11G C12A C13A	1.14
U7G U8G G9A U10C U11A C12G	1.21
U8G U10A U11G C12G	1.2
U7G U8A U10G U11A C13A	1.18

Variant	aptazyme ON/OFF ratio
U7A U8G G9C C12U C13G	1.22
U7G U11A C13A	1.16
U7C U8A C12G	1.37
U7C G9U C12U	1.07
G9C U10A C12A C13A	1.21
U7G U8C G9C U10C U11A C12A C13G	1.09
U7C U8A G9U U10A U11C C12A C13G	1.17
U8G G9U U10A U11C	1.01
U8A G9U U11C C12A C13U	1.11
U7C U8C G9U U10C U11G C12U C13G	1.19
U7A G9A C13U	1.32
U7A G9A C13G	1.06
G9U U10C U11G C12A C13U	1.08
U8C G9A U10A U11G C12G C13U	1.14
U7A U8G G9U U10G U11C	1.03
U7G U8G G9A U10A U11A C12A	1.19
U7A U8G G9U U10G U11C C12G C13G	1.13
U7G U8A G9A U11C C12U C13U	1.17
U7A G9U C12A C13A	1.27
G9A U10C C12A	1.38
U7G U8G G9C U11A C12U C13U	1.26
